Paper PMC8562477

System: T1, MBP-RstA D52A D52A (Pseudomonas fluorescens 2P24), ORF:4a43b447
T1 sequence: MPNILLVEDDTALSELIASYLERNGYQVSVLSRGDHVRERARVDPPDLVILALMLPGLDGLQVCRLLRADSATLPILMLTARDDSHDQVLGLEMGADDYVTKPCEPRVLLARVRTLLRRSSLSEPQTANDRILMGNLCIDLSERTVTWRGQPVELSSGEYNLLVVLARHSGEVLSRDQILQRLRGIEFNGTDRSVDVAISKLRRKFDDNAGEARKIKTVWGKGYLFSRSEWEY
Assay: EMSA
Details: EMSA: 50 mM Tris-HCl pH 7.5, 10 mM MgCl2, 10% glycerol, 0.5 mM EDTA, 50 mM KCl, 3 uM BSA, 50 ng DNA in 20 ul, 30 min room temperature, 6% native PAGE

“CGGCCTGTGTGATTACACAATTTCACAGAGCGCCTACAAAGCTTCACCCCTGTCATGGGCCTGGATCCCTACCATGAGCGGCTCAATATTGGGGAAGCACC (double strand) [FAM-mexC promoter]” was tested, and the binding was “binds more weakly”.
In the case of “GGCAATAAACACCTCAATCAGGATGCGTCAGCAATGCGTAAGCATCAGCTGAACAAAATATGAGGCGACGTCTCTTGAAACGCGTCTCCGATCTATACAGGCCTTTGTCAGGCTTTTGTAAATCCGGATATTACGCAATTTGGCTGTTTACAAACAACCGTGTACGTAAGTATATTTCTTAGCATCCTACTAATTGAAAAAATGCTCCTTTTTTACCCTTCCACCTTTCGAGTGCGCCAGTTACGCGCCTGGACCCGAGGATTT (double strand) [FAM-emhA promoter]”, the binding is reported as “binds more weakly”.
